Data published in patent US20170355765A1 (published 2017).

Target: T1, human TEM8 expressed on CHO or HEK 293 cells (human, UniProt Q9H6X2 33-564)
T1 construct: also called hTEM8; CHO TEM8
Test: binding to CHO cells expressing human TEM8

T1 sequence (Q9H6X2 33-564 limits assumed): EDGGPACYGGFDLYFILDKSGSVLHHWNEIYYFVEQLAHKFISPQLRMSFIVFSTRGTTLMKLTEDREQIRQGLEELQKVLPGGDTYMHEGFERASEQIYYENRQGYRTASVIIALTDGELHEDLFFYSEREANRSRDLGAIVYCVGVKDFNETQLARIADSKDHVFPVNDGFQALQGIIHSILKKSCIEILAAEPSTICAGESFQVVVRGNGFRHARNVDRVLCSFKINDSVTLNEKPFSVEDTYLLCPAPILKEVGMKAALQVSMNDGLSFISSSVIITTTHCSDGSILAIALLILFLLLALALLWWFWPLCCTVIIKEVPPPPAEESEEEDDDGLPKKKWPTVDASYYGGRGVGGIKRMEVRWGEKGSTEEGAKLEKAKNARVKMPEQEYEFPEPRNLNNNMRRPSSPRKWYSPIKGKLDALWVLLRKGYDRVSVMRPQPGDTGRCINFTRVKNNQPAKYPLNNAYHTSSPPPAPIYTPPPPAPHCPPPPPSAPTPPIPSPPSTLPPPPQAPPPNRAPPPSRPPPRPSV

B1: antibody drug conjugate including the m825 antibody (in human IgG1 format) conjugated to MMAE (other)
VH: QVQLVQSGAEVKKPGTSVKVSCKVPGYTFSSYAISWVRQAPGQGLEWMGGIIPIFGTTNYAQKFQGRVTITGEESTSTVYMELSSLRSEDTAVYYCARDTDYMFDYWGQGTLVTVSS
VL: SSELTQDPVVSVALGETVSITCQGDNLRDFYASWYQQKPGQAPLLVMYGKNRRPSGIPDRFSGSTSGNTLSLTITGAQAEDEADYYCSSRDNSKHVVFGGGTKVTVL
modifications: MMAE toxin with stretcher unit, Val-Cit peptide cleavage site and spacer, linked to thiol groups formed by partial reduction of inter-chain disulfide bonds (positions not stated)
notes: also called m825-MMAE; m825-MMAE conjugate
B1: binds.
